Target: T1, EhDbr1 (RNA lariat debranching enzyme) (Entamoeba histolytica, UniProt C4M1P9 1-354)
T1 sequence: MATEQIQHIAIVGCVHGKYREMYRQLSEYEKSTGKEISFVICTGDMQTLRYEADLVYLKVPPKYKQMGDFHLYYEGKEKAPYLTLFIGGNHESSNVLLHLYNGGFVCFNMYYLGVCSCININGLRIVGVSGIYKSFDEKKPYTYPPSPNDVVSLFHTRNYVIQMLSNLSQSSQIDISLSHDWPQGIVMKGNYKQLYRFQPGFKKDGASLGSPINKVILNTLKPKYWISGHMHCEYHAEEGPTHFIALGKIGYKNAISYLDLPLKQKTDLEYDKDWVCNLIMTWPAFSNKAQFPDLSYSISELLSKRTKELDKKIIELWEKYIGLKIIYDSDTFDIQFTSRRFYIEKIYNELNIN
Experiment: X-ray crystallography

Binder: GUGUG (ssRNA, 5'-terminal phosphorothioate) [PS-bRNA-1 5' product (hydrolyzed 2'-5' fragment, 5'-PS-GUGUG-3')]
- binding result: binds
